Assay: soluble on expression in E. coli; label from the status in PepcDB or PDB records

Sequence	soluble on expression in E. coli
MPEAWIVEAVRTPIGKHGGALASVRPDDLLAHALSVLVDRSGVPKEEVEDVYAGCANQAGEDNRNVARMALLLAGFPVEVAGCTVNRLCGSGLEAVAQAARAIWAGEGKVYIGSGVESMSRAPYAVPKPERGFPTGNLVMYDTTLGWRFVNPKMQALYGTESMGETAENLAEMYGIRREEQDRFALLSHQKAVRAWEEGRFQDEVVPVPVKRGKEEILVEQDEGPRRDTSLEKLAALRPVFREGGTVTAGNSSPLNDGAAAVLLVSDDYAKAHGLRPLARVRAIAVAGVPPRIMGIGPVPATRKALERAGLSFSDLGLIELNEAFAAQALAVLREWSLSMEDQRLNPNGGAIALGHPLGASGARILTTLVHEMRRRKVQFGLATMCIGVGQGIAVVVEGMG	soluble
MSLTDLSMPKPPSVLPDKRQVAASFSRAAGSYESVAELQRSVGSELLSRLPAQFSPVRWLDLGSGTGYFSRALDQVFSGSEGIALDIAEGMLRHAQPLGGAQHFVAGDAEHLPLRDQSCGLIFSSLAVQWCADFAAVLREAHRVLQPSGVFAFASLCVGTLYELRDSWQAVDGQVHVNRFRHEDDYRQLCAASGLQVRSLDVCPQVLHYPDVRSLTHELKALGAHNLNPGRPSGLTGRERIKGMVQAYEAFRQEAGLPATYQVVYAVLEKAEGHHHHHH	not soluble
MGSDKIHHHHHHMLGRTANGLYWMFRYIERAENSARLIDAGLRMSLTRSEAAEDDWDGVLQSADVRELYDQVHEGLTSGDAIDFLLRDRTNPSSVMSCIEAGRNNARMVRTALTRETWEAINECWIEMKGILARRAKTTDMPEIIDTIKRRAGLIRGAFHGTMLRNEIFNFSRIGTFIERADNTARILDVKYYVLLPAVSAVGSSMDNVQWESILRSVSAHRSYGWVYDAELRPANIADFLIANGRMPRSLAYCYDKLVSNLGYLAREYGERHAAHETAEQTLGLLRSQSIAEIMDQGLHQYLKEFINQNNRLGREISDGYRFYQ	not soluble
MGSSHHHHHHGGTGENLYFQGGSGHPASLAAHAFGDASTRSPTHTLPSRCHLFLSLSLSTAAVRRSRASPPLAPTRRTHECLSASHTRTCRQSASFSPLEHPFSFSVAILSSTMPREIKTLKEFLAICSRKDARCVKVKHNPSATKFKVRCSRYLYTLVVNDKKKADKIERSIHPSVKKIAVTARSHAKTNAGSKQ	not soluble
MGSDKIHHHHHHMTLRISQLAQKFGLSRSTLLYYEKQGLIRGRRLDNGYRVYSENDLQRLILIQKLQAGGLTLKECLACLDARIDKALLQTRLAELDADIAQKQASRTLLAALLGEGDLKAWHESLTKEAPEAHLDWLQTQGFSEKEALHLTWLSKDMNEHDKFMADFMQIFSPLTRWAPGSEADTLKALASVPLTPTRILDIGCGKGLATRMLAKHTKASITAIDNEEDALTELQQHLQHRNLASRVSTLCASMTDIPLPAASADLIWAEGSAYIMGVEQALKSWRKLLVDNGVLVLSDLVWLTDDKAPEAVAFWQQDYPAMTSVEARMAQMQAAGFEVIDSFSLSNEAWKSFTGPLAARVDEVSEQLAGSQALANVQRELGIFSRFLGQFGYQFFVLQKRG	not soluble
GSAAEVMKKYCSTCDISFNYVKTYLAHKQFYCKNKP	soluble
MKLERILPFSKTLIKQHITPESIVVDATCGNGNDTLFLAEQVPEGHVYGFDIQDLALENTRDKVKDFNHVSLIKDGHENIEHHINDAHKGHIDAAIFNLGYLPKGDKSIVTKPDTTIQAINSLLSLMSIEGIIVLVIYHGHSEGQIEKHALLDYLSTLDQKHAQVLQYQFLNQRNHAPFICAIEKIS	not soluble
MSRKTLVDTPITPQSSIGHILRAQFALQNQLPEDKPKTIGFNEAENMKLYELYSGRREEYHSTRPSGQRNEEVPMDTLAREWATEITSMGFAERTPAQIKQRIRDMRKFSRKHAHKLGITNMNAGQELERYAEFSWAEPKRRSRGPVPDWMSGLAEIMMSEQDTKADDADSASDIMEATYGPKAKRLKLQRTEMQLHQLQLHLDMKQRELKQEREKEEGNGNDEQEEREKRDVSPETLLIEKKLRLADAKLHTEHLKQQVSIP	not soluble
MGSDKIHHHHHHMRLDTLSKTGGGVQEALSGSVRLYSEVLNREVEVPETPRRIVSLSPAITETLYMLGLEDRIAGVSVYDHKPPKAREKPKVGSYYKVNMKLLEQLNPDLILVTTGAQRRILEDLSRRYPVYPIPLPVSVSGIIDQAVQVGIVTGALEEASRLETELLDKASKLRGAGRGLRIYYEVYLGGPVTAGAHTYISDAFRIAGVETPFMSERTTWIYQPPPERINRFKPQFILYEYSAYAPTTAEKVRGELEARGVDVGSAELVLLEPDTLAHYGPSFIDTMLDLLKTLRDKAGLG	not soluble
GPGSMSEKEGKVIPETNGMKRPRFDPVKLGLPEEFTLTDYTRLKGCSCKVPQPELLALLQSVSTTPGRRDVGMDCSIVKLQHKDETGKPLYMVSTTDFFFPSVEDPYLQGQIGAANVLSDLYSTGIDRCDTVLMLLAASTDMDKTEREVCTQEMMKGFVDHVRLAGSDVTGGQTVMNPWPLIGGIATSVVAESQMIRPTGLQPGDILVLTKPLGCQIAVNLKQWLRRPSPIFEEQIQGKMDSEEIEELYNAAADGMKRLNRMAAALMHSHGAHGATDVTGFGILGHAKNLGSAQKADVCLVLDSLPMYRGAVKASKLMGDKYRLFEGYAAETSGGLLVAFGTREEAEGYIRELYETDGEPAWVVGRVVRREGSAPYALLQKDYKIIEVGAKVNDKII	soluble
SARKSNLPVLLVPFLLCQALVRCSSPLPLVVNTWPFKNATEAAWRALASGGSALDAVESGCAMCEREQCDGSVGFGGSPDELGETTLDAMIMDGTTMDVGAVGDLRRIKNAIGVARKVLEHTTHTLLVGESATTFAQSMGFINEDLSTSASQALHSDWLARNCQPNYWRNVIPDPSKYCGPYKPPGILKQDIPIHKETEDDRGHDTIGMVVIHKTGHIAAGTSTNGIKFKIHGRVGDSPIPGAGAYADDTAGAAAATGNGDILMRFLPSYQAVEYMRRGEDPTIACQKVISRIQKHFPEFFGAVICANVTGSYGAACNKLSTFTQFSFMVYNSEKNQPTEEKVDCI	soluble
MGSDKIHHHHHHMTGEKVHLTGAKETLLMTLYGKALESRLPHSLLGDHFADEAVRKIDYDFSRLKVDENLGIGLAIRAKTLDVRVEDFLARNPGAIVLHLGCGLDTRVFRVDPPPGVDWFDADYPQVIELRRKLYPPRDHYHLIASSVTEPGWLAEVPRNRPAMVVAEGLTPYLPADEGLRLVSRLVSHLAGGELMFDAYSRFGLTLLRLSPTIKATGAEVHWAIDDPHELELAVPKLRFVEDISAYMPEHAARMGWSAKLFVRLWKHIPALRKVGRLLRYRF	not soluble
MAHHHHHHMHLLSFLSFIIWFIHCTAKRHEYSIKKYFLNSHNFCKIKPDPFRKDTLKKRLYSSDGIKDEIIIGTRDSPLALKQSEKVRKKIMSYFKKMNKNINVTFKYIKTTGDNILDSKSVGLYGGKGIFTKELDEQLINGNVDLCVHSLKDVPILLPNNIELSCFLKRDTINDAFLSIKYKSINDMNTVKSVSKTEDIHHINKKDSDHNNDTLCTIGTSSLRRRSQIKNRYKNIYVNNIRGNINTRIEKLYNGEVDALIIAMCGIERLIKKANLKHLLKNKEQKNICQPFLLKCNNKKCIDLCHVNIQKLNKNLIYPALGQGIIAVTSHKKNYFISSLLKNINNKKSEMMAQIERSFLYHIDGNCMMPIGGYTNMRNEDIYLHVIINDIHGYNKYQVTQKDTLYNYKEIGPNAAIKMKEIIGTEQFNKIKAEAELHLLNNK	not soluble
MSLKTFIKIILLYLMPILAFATELRPGDRLQIKFPGESAFEKSFQLDHDGKISLPEIGTVKLQGMSLLQARTVLTGKLSNAYKDLSKFDLFLKERRLTVTVLGYVKEPGPVDMPIRANVQMAINSAGGLAQGAQLDKLQIRRSSGIIEFDYKHYLDSGDPSSLPKLEPMDVIFIPASPLIGNVQVEFDARTLTASGDAGEDGEAIKVFGEVHRPGTFAFKEDASVMDMIMRAGGVTRYAGIEQIRVIHQGQPYPFDMREYLDTGNPDLMPKIHQGDVIFIPQATEQVKSGSRTVYVMGEVFKPGAMEMGEGSGFYDLLATAGGPTRFAETRQIRIIRADGKVQPFDLQGYVDSQGRTKLPSIQPGDAILVPEKTDMNEKSWLKVHPNRAVRIIGAVNRPGRYEWASEMTLMDLIAHAGGPIASADTAHLQILQQRKNGNTESVSFDLKSFLDEGHHHHHH	not soluble
MSLDVPLAQTVVWETHVGDFSNDPAGGFPESHRGKYLAFTDDGTSLEGHPDFPTGLAYLKKLGVTAVQLMPIYDFGSVDETTCDRYNWGYDPINYNVPEGSYSTNPFDGTTRIREVKQMVQALHSAGIKVIMDVVYNHMFSTDNWFERTVPKYFLRRKPNGALANGSGCGCDMATERKMFRRFIVESVTFWAREYHMDGFRFDLMGLIDVDTMNAVRAALNEIPGRGRDILMYGEPWSAGASAPLPADTLLAGKQGLAQLDDRIGHFCDTTRDTIKGHVFYSDRPGYVNGGMHANAVAVREAVDAWRHSDRPEGVAGQVIQYVSAHDDLTLWDKLCASLAASSLGSAVAEGDEENTVDVPKTLHDADFSEQGLDAVGPEMAQALHDVLGANRLSAGIVLTSAGIPFMLSGEEFARTKYGNSDSYDSTKELNWLDWNRAWHMRDLIGFYAKLIALRKSDARWFDGNRKIVDTEGDELVFRVGDYLVAVNPSDRTGVVDVAAAAVEGDSGEMHRYWCCLGVSGRGGGVSTGGGDDDYLIMPAHTFAIWRLQEGHHHHHH	not soluble
MSLKIVLTGSIGRINQTLVPKLTHAGHEVTVISHQATRSSLIKVFRATPAIGRLDDEAFLTKTFMGADVVYLMVTGIAASDDLYTAAKRQADIYAAAIKAAGVKRVVNLSSVGADLGPEVGALYMYHIIEQTLTTALPDVDLTFIRPTAMYYNLLSSVPTVKKSHRIYTNANLAVKNVWVAPVDVTTVLIKALTEPTPGQTVTYVASDEKTYLEVASALSQALKMPDLRVSQVPDEVMQDHLVTAGTPVAFAREYVKTVAYQRDHDFYADYRAHQPRLGDVKLADFAEGHHHHHH	not soluble
MSLAEYKHILVGVDGSRQAKRALDKAIAVALRNQAELIIVTIMSGGDYVGLGNNTQVGFGYVDQQVMDESRQALEALVDQYRQKAQEAGVERVVTSVFYGHAKVDLAKSLPKEYQADLIMLGATGVNVVERMLLGSTASYVVANAVCDVLVVRTDLHNEGHHHHHH	soluble
MIPEEIYKILRKQRYQIDGHTAVKLCGWVRKKMLEDKNCYKSKFYGIETHRCIQCTPSVIWCQQNCIFCWRVLPRDIGIDISQIKEPKWEEPEVVYEKILAMHKRIIMGYAGVLDRVGEKKFKEALEPKHVAISLSGEPTLYPYLDELIKIFHKNGFTTFVVSNGILTDVIEKIEPTQLYISLDAYDLDSYRRICGGKKEYWESILNTLDILKEKKRTCIRTTLIRGYNDDILKFVELYERADVHFIELKSYMHVGYSQKRLKKEDMLQHDEILKLAKMLDENSSYKLIDDSEDSRVALLQNENRKINPKL	soluble
AGIVNQVTAKNITADLQGGYPWSESNPLLLSDVSVDVLGGQIIMKQLRMPQHDPALLRVQNISSSELISAINPKQFAMSGPVSGALPLWLNNEKWIIKDGWLTNPGPMTLRIDKDTADAVVKDNVTAGSAINWLRYMEITHSWTKINVDNLGVLTMQAAITGKSRVDGKTAIVNLNYTHEENVFTLWRSLRFGDNLQAWLEQNTALPQPP	not soluble
MLKIGIVGCGAIGNFITKKVLDGTIKNAKISAVYDRNFDKAKTLSERTGAKICSSIDDLVKEDLDLVVEAASIKAVEEIAEKSLINNKDVLIMSVGALADKKLFLKLRDLAKTVGRKIYLPSGAIGGLDAIKALRLGEIEEVVLKTTKPVAALEDALKNLGYKPEDIKNPVIVFEGDVFKAIKEFPANINVSVTLSIAAEFPAKVVIVADPNAKLNKHELFVKSSIGTLRVCIENVPFEENPRTSALAAYSAVRLIRDLAEPVKVGT	soluble

— the DeepSol protein solubility set
